Results from the RNAGym collection of RNA variant scans (doi:10.1073/pnas.2313332121).
Fewer inactive variants are shown than the library holds.

B1: TPR 5TU (parent)
chain: GGAUCUUCUCGAUCUAACAAAAAAGACAAAUCUGCCACAAAGCUUGAGAGCAUCUUCGGAUGCAGAGGCGGCAGCCUUCGGUGGCGCGAUAGCGCCAACGUUCUCAACUAUGACACGCAAAACGCGUGCUCCGUUGAAUGGAGUUUAUCAUG

Variants of: B1
Experiment: polymerase ribozyme fitness, log enrichment relative to wild type (log ratio); higher = more active; in vitro selection for triplet polymerase activity
Procedure, shortened: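 PCR was used to build mutant libraries for each subunit of a heterodimeric triplet polymerase ribozyme, which were then transcribed. A single in vitro selection round, in triplicate, used a frozen incubation at −7 °C and recovered extended constructs by gel excision, streptavidin beads and RT-PCR. Fitness is the logarithm of genotype enrichment relative to wild-type enrichment, averaged over replicates with inverse-variance weights. The logarithm is base 2, and after Illumina sequencing only genotypes with ≥10 input reads and ≥1 read per output were kept.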

Row | Variant | polymerase ribozyme fitness (log ratio)
1 | A60G G67U G86A | -4.13
2 | G59C G67A U78G C79A C87A G143A | ≤ -4.2
3 | A64G C99A | -3.82
4 | U61C C87A | ≤ -4.2
5 | G59C U127A | -3.77
6 | A60G C114U | -1.83
7 | C63U A64G G83C | ≤ -4.2
8 | G62C G81A A91U A113U C125U | ≤ -4.2
9 | A60U U61A G86A C93A A110C G133A | ≤ -4.2
10 | G62A C75U | -0.822
11 | G59A C75G A122U C129A G143U | -3.5
12 | C63A G83A U145C A150U | -0.965
13 | G59U A60G C93U | -3.87
14 | A60G A73G C85A | -2.02
15 | A60G C95A U101C | 0.139
16 | C63A C79U G94C A119G | ≤ -4.2
17 | G59C A60C C87G | ≤ -4.2
18 | A66C G92A | ≤ -4.2
19 | G62C C72U C85U C108U | ≤ -4.2
20 | A60U C85U | -1.46
21 | A60U C85A | -3.04

Row | Variant | polymerase ribozyme fitness (log ratio)
22 | A60U C85G | -3.14
23 | G62U G136A | 0.626
24 | A60G C69A A91U A97U U134C | ≤ -4.2
25 | G59C C96U A106G C132U U145C | -0.905
26 | G59A A137U G141C | -3.95
27 | G59C C75U | -1.52
28 | A60G U90A C95A G117A | -3.93
29 | G59C C93G A97U U127C A137G | ≤ -4.2
30 | G58U G83C | -0.165
31 | G59A U61C | -0.735
32 | A60G C85A U101G | -2.94
33 | G59A G62A G86U A107C | ≤ -4.2
34 | G62C C72U C93U G133A G141U | ≤ -4.2
35 | C63U C99U C116A | 0.561
36 | A60G G83A G133C | -1
37 | G58C C96U | -1.02
38 | G58C C72A A110C A147G A150C | ≤ -4.2
39 | A66C C85A | ≤ -4.2
40 | A64C G83C G141A | ≤ -4.2
41 | G58U G86A | -1.55
42 | U61A C63U C85G A119U C131A | ≤ -4.2

Row | Variant | polymerase ribozyme fitness (log ratio)
43 | A60G G68A U139A | ≤ -4.2
44 | G59C U77A C96G C105U G140A | ≤ -4.2
45 | G59C C93G | -2.98
46 | G59C C93U | -1.11
47 | G59A C95U C103G | -2.47
48 | G58C C85U G117U | -0.00983
49 | G59C C85G A89U G92A | ≤ -4.2
50 | A64G | -2.27
51 | A64C | ≤ -4.2
52 | A64U | -3.99
53 | C63U C75A G86A A89U A106U U134G | ≤ -4.2
54 | G62U C63U G68A C95A C103A | ≤ -4.2
55 | A60U C76A A120U | -1.94
56 | A60G G71A C75A C93U C118G | ≤ -4.2
57 | A64C G71A U144G U148G | ≤ -4.2
58 | U61A G65A G67C G84U C96G G141U | ≤ -4.2
59 | G62U A106C U146G C149U | -3.91
60 | G59C A119U C149U | -0.775
61 | G59C C96G C118G A142U | -3.61
62 | A60U G141U | 0.392
63 | G65A C96U G112C A115G U144A | ≤ -4.2

Row | Variant | polymerase ribozyme fitness (log ratio)
64 | G62C G141C | -0.741
65 | U61A C96U | -1.32
66 | U61A C96A | -1.36
67 | G58U G94U G140U | -3.9
68 | A60G G88C A106U U134A G140C G143C | ≤ -4.2
69 | A60G G74A | -3.26
70 | G59U C87G C95U U101G C149G | ≤ -4.2
71 | U61A U78G C95U A107C U148G A150U | ≤ -4.2
72 | A66C C76U A91U A97U C114U A142G | ≤ -4.2
73 | G58U A60G A137C | ≤ -4.2
74 | U61G C85A G133C | -3.52
75 | G59A G100C | ≤ -4.2
76 | G58U C105U A106G C149U | 0.147
77 | G59C U109G | -0.84
78 | A60C C76U A89G C114U G141U | ≤ -4.2
79 | G62U C116U | 0.138
80 | A60G G67A U78G C96G A120U G140U A147G | ≤ -4.2
81 | A66G C69U | ≤ -4.2
82 | A66C C76U | -3.47
83 | A66C A91G A98U C131A U139A | ≤ -4.2
84 | A66C C103G C108A G117A | ≤ -4.2
